In doi:10.1101/2022.02.20.481182 (bioRxiv, 2022):
Each block holds one binder with its values, some of them ahead of it. No end group written: not given here.

B1: BRPF2 bromodomain, wild-type, N-terminal His6-tagged (domain or fragment)
chain: EQVAMELRLTPLTVLLRSVLDQLQDKDPARIFAQPVSLKEVPDYLDHIKHPMDFATMRKRLEAQGYKNLHEFEEDFDLIIDNCMKYNARDTVFYRAAVRLRDQGGVVLRQARREVDSIGLEEASGMHLPERPA

Assays:
Assay in all cases: ITC
[1] = molecular target: histone H4K5acK8ac (1-15) peptide (UniProt P62805 2-16, acetyl-lysine at K5 and K8)
[2] = molecular target: histone H4K5acK12ac (1-15) peptide (UniProt P62805 2-16, acetyl-lysine at K5 and K12)
[3] = molecular target: histone H4K8acK12ac (1-15) peptide (UniProt P62805 2-16, acetyl-lysine at K8 and K12)
[4] = molecular target: histone H4K5ac (1-15) peptide (UniProt P62805 2-16, acetyl-lysine at K5)
[5] = molecular target: histone H4K8ac (1-15) peptide (UniProt P62805 2-16, acetyl-lysine at K8)
[6] = molecular target: histone H4K12ac (1-15) peptide (UniProt P62805 2-16, acetyl-lysine at K12)
[7] = molecular target: B1

Binder: B1
Kd [1]: 28.5 ± 1.6 µM
Kd [2]: 3.2 ± 0.1 µM
Kd [3]: 44.7 ± 3.5 µM
Kd [4]: 3.5 ± 0.4 µM
Kd [5]: 6.2 ± 0.6 µM
Kd [6]: 18.2 ± 1.2 µM

B2: BRPF2 bromodomain I586F mutant (domain or fragment)
chain: EQVAMELRLTPLTVLLRSVLDQLQDKDPARFFAQPVSLKEVPDYLDHIKHPMDFATMRKRLEAQGYKNLHEFEEDFDLIIDNCMKYNARDTVFYRAAVRLRDQGGVVLRQARREVDSIGLEEASGMHLPERPA
binding result [4]: binds

Further lines, results first:

Kd [7]: 20.5 ± 1.4 µM
B3: histone H4K16ac (11-21) peptide (peptide, UniProt P62805 12-22, looked up)
peptide: GKGGAK(Ac)RHRKV

Kd [7]: 10.2 ± 0.2 µM
B4: histone H3K14ac (9-19) peptide (peptide, UniProt P68431 10-20, looked up)
peptide: KSTGGK(Ac)APRKQ
